Experimental findings from paper PMC6699081, “Development and application of a transcriptional sensor for detection of heterologous acrylic acid production in E. coli” (Microbial Cell Factories, 2019) are described below.

Data set [1] concerns T1, C=CC(N)=O.
T1 construct: C-terminal 6xHis tag, expressed in E. coli BL21(DE3), His-GraviTrap purified; catalytic triad E59, K134, C166
Nature of the data set: purified protein. The data set is classed as biochemical, Bacillus sp. (in: firmicutes). The note with it: 20 mM potassium phosphate pH 7.2, 150 mM NaCl, 2 mM DTT, 37 °C, 15 nM enzyme, 20 min.

The subject of data set [2] is C=CC(N)=O. The data set can be described thus: purified protein. The note with it: 20 mM potassium phosphate pH 7.2, 150 mM NaCl, 2 mM DTT, 37 °C, 15 nM enzyme, 20 min.

Consider “RAPc8 amidase (Bacillus sp. (in: firmicutes))”, for which, in the data set with C=CC(N)=O [1], the Km – broadly, the concentration of substrate that gives half-maximal velocity – is recorded as 7.3 ± 0.1 mM; the maximum rate (Vmax) (as a rule, the rate approached at saturating substrate) came out at 106 µM/min; the kcat (as a rule, the number of substrate molecules converted per active site and unit of time at saturation) amounted to 118 ± 6.75 s⁻¹; the kcat/Km – broadly, the second-order rate constant that governs catalysis at low substrate concentration – turned out to be 16300 ± 1060 M⁻¹ s⁻¹.

In the case of “RAPc8 amidase (Bacillus sp. (in: firmicutes); A77T)”, in the data set on C=CC(N)=O [2], the Michaelis constant (Km) stood at 4.5 ± 0.2 mM, the Vmax turned out to be 66.7 µM/min, the catalytic constant (kcat) was determined as 74.1 ± 2.32 s⁻¹ and the kcat/Km came out at 16600 ± 357 M⁻¹ s⁻¹.

Turning to “RAPc8 amidase (Bacillus sp. (in: firmicutes); A77T/D294N/K342E/M203V/M45L)”, in the data set on C=CC(N)=O [2], the Km came to 7.4 ± 1.3 mM, the Vmax came to 176 µM/min, the kcat was 196 ± 17.9 s⁻¹ and the specificity constant (kcat/Km) was found to be 26800 ± 2390 M⁻¹ s⁻¹.

On to “RAPc8 amidase (Bacillus sp. (in: firmicutes); A77T/M203V)”, for which, in the data set with C=CC(N)=O [2], the Michaelis constant (Km) came to 4.6 ± 0.4 mM, the Vmax came out at 64.7 µM/min, the kcat is 71.9 ± 5.14 s⁻¹ and the catalytic efficiency (kcat/Km) stood at 15600 ± 598 M⁻¹ s⁻¹.

Turning to “RAPc8 amidase (Bacillus sp. (in: firmicutes); M203V)”, in the data set with C=CC(N)=O [2], the Km turned out to be 7.2 ± 1.1 mM, the maximal velocity (Vmax) came out at 147 µM/min, the kcat came to 163 ± 18.6 s⁻¹ and the kcat/Km came out at 22900 ± 1170 M⁻¹ s⁻¹.
